# In article PMC6891087 (2019):
# Target: unmodified nucleosome core particle (human | Xenopus laevis, UniProt P04908 1-130; P06899 1-126)
# Experiment: SPR
binder,measurement,value
CPC_LM containing the Survivin BIR mutant K62/E65/H80A (complex) chain 1: MAPRKGSSRVAKTNSLRRRKLASFLKDFDREVEIRIKQIESDRQNLLKEVDNLYNIEILRLPKALREMNWLDYFALGGNKQALEEAATADLDITEINKLTAEAIQTPLKSAKTRKVIQVDEMIVEEEEEEENERKNLQTARVKRCPPSKKRTQSIQGKGKGKRSSRANTVTPAVGRLEVSMVKPTPGLTPRFDSRVFKTPGLRTPAAGERIYNISGNGSPLADSKEIFLTVPVGGGESLRLLASDLQRHSIAQLDPEALGNIKKLSNRLAQICSSIRTHK chain 2: MGAPTLPPAWQPFLKDHRISTFKNWPFLEGCACTPERMAEAGFIHCPTENEPDLAQCFFCFAELAGWEPDDDPIEEHKKASSGCAFLSVKKQFEELTLGEFLKLDRERAKNKIAKETNNKKKEFEETAKKVRRAIEQLAAMD chain 3: MGTTAPGPIHLLELCDQKLMEFLCNMDNKDLVWLEEIQEEAERMFTREFSKEPELMPK,Kd,309 nM
